Results from PMC11969024 (2025).

B1: peptide HD2 (from tick evasin EVA4) / CCL19 (biotinylated, synthetic) (parent complex)
chain 1: EEDDYTAYAPLTCYFT
chain 2: GTNDAEDCCLSVTQKPIPGYIVRNFHYLLIKDGCRVPAVVFTTLRGRQLCAPPDQPWVERIIQRLQRTSAKMKRRSS
B2: peptide HD2 (from tick evasin EVA4) / CCL17 (biotinylated, synthetic) (parent complex)
chain 1: EEDDYTAYAPLTCYFT
chain 2: ARGTNVGRECCLEYFKGAIPLRKLKTWYQTSEDCSRDAIVFVTVQGRAICSDPNNKRVKNAVKYLQSLERS

Variants of: B1
In the case of chain 1 KEDDYTAYAPLTCYFT [chain 1 E1K], the enrichment is reported as -4.04 log2 (difference from the parental peptide).
For chain 1 REDDYTAYAPLTCYFT [chain 1 E1R], the enrichment was -6.95 log2 (difference from the parental peptide).
chain 1 DEDDYTAYAPLTCYFT [chain 1 E1D] was tested, and the enrichment was 0.567 log2 (difference from the parental peptide).
In the case of chain 1 EEDDYMAYAPLTCYFT [chain 1 T6M], the enrichment is reported as 1.73 log2 (difference from the parental peptide).
In the case of chain 1 EEDDYTAYNPLTCYFT [chain 1 A9N], the enrichment is reported as -3.82 log2 (difference from the parental peptide).
For chain 1 EEDDYTAYSPLTCYFT [chain 1 A9S], the enrichment was -6.72 log2 (difference from the parental peptide).
chain 1 EEDDYTAYAPLTCYRT [chain 1 F15R] was tested, and the enrichment was -6.02 log2 (difference from the parental peptide).
For chain 1 EEDDYTAYAPLTCYKT [chain 1 F15K], the enrichment was -4.98 log2 (difference from the parental peptide).
With chain 1 EVDDYTAYAPLTCYFT [chain 1 E2V] the enrichment was 0.565 log2 (difference from the parental peptide).
With chain 1 EEDDYTGYAPLTCYFT [chain 1 A7G] the enrichment was -5.86 log2 (difference from the parental peptide).
chain 1 EEDDYTAFAPLTCYFT [chain 1 Y8F] was tested, and the enrichment was -1.35 log2 (difference from the parental peptide).
For chain 1 EEDDYTAWAPLTCYFT [chain 1 Y8W], the enrichment was 0.479 log2 (difference from the parental peptide).
In the case of chain 1 EEDDYTAYAPRTCYFT [chain 1 L11R], the enrichment is reported as -3.8 log2 (difference from the parental peptide).
chain 1 EEDDYTAYAPITCYFT [chain 1 L11I] was tested, and the enrichment was 1.76 log2 (difference from the parental peptide).
For chain 1 EEDDYTAYAPLTCYFA [chain 1 T16A], the enrichment was -1.59 log2 (difference from the parental peptide).
With chain 1 EEDDYTAYAPLTCYFM [chain 1 T16M] the enrichment was 0.0438 log2 (difference from the parental peptide).
chain 1 EEDDYTAYAPLTCYFG [chain 1 T16G] was tested, and the enrichment was -4.08 log2 (difference from the parental peptide).
chain 1 EEDLYTAYAPLTCYFT [chain 1 D4L] was tested, and the enrichment was -2.61 log2 (difference from the parental peptide).
For chain 1 EEDDYTAYAPLTCKFT [chain 1 Y14K], the enrichment was -5.55 log2 (difference from the parental peptide).
chain 1 EEDDYTAYAPLTCLFT [chain 1 Y14L] was tested, and the enrichment was -9.46 log2 (difference from the parental peptide).

Variants of: B2
In the case of chain 1 EEKDYTAYAPLTCYFT [chain 1 D3K], the enrichment is reported as -3.46 log2 (difference from the parental peptide).
In the case of chain 1 EEWDYTAYAPLTCYFT [chain 1 D3W], the enrichment is reported as -4.02 log2 (difference from the parental peptide).
chain 1 EENDYTAYAPLTCYFT [chain 1 D3N] was tested, and the enrichment was -1.74 log2 (difference from the parental peptide).
chain 1 EEPDYTAYAPLTCYFT [chain 1 D3P] was tested, and the enrichment was -2.92 log2 (difference from the parental peptide).
In the case of chain 1 EEGDYTAYAPLTCYFT [chain 1 D3G], the enrichment is reported as -4.23 log2 (difference from the parental peptide).
For chain 1 EEVDYTAYAPLTCYFT [chain 1 D3V], the enrichment was -5.2 log2 (difference from the parental peptide).
In the case of chain 1 EERDYTAYAPLTCYFT [chain 1 D3R], the enrichment is reported as -5.97 log2 (difference from the parental peptide).
In the case of chain 1 EEIDYTAYAPLTCYFT [chain 1 D3I], the enrichment is reported as -4.4 log2 (difference from the parental peptide).
In the case of chain 1 EEDDYTAYMPLTCYFT [chain 1 A9M], the enrichment is reported as -5.43 log2 (difference from the parental peptide).
In the case of chain 1 EEDDYTAYRPLTCYFT [chain 1 A9R], the enrichment is reported as -4.45 log2 (difference from the parental peptide).
For chain 1 EEDDYTAYLPLTCYFT [chain 1 A9L], the enrichment was -7.01 log2 (difference from the parental peptide).
For chain 1 EEDDYTAYFPLTCYFT [chain 1 A9F], the enrichment was -8.26 log2 (difference from the parental peptide).
For chain 1 EEDDYTAYHPLTCYFT [chain 1 A9H], the enrichment was -5.14 log2 (difference from the parental peptide).
With chain 1 EEDDYTAYTPLTCYFT [chain 1 A9T] the enrichment was -4.51 log2 (difference from the parental peptide).
For chain 1 EEDDYTAYSPLTCYFT [chain 1 A9S], the enrichment was -0.697 log2 (difference from the parental peptide).
chain 1 EEDDYTAYAPLTCYET [chain 1 F15E] was tested, and the enrichment was -1.17 log2 (difference from the parental peptide).
chain 1 EEDDYTAYAPLTCYST [chain 1 F15S] was tested, and the enrichment was -0.792 log2 (difference from the parental peptide).
chain 1 EEDDYTAYAPLTCYWT [chain 1 F15W] was tested, and the enrichment was -1.65 log2 (difference from the parental peptide).
chain 1 EEDDYTAYAPLTCYDT [chain 1 F15D] was tested, and the enrichment was -0.947 log2 (difference from the parental peptide).
For chain 1 EEDDYTAYAPLTCYCT [chain 1 F15C], the enrichment was -5.94 log2 (difference from the parental peptide).
In the case of chain 1 EEDDYTAYAPLTCYIT [chain 1 F15I], the enrichment is reported as 0.435 log2 (difference from the parental peptide).
In the case of chain 1 EEDDYTLYAPLTCYFT [chain 1 A7L], the enrichment is reported as -0.26 log2 (difference from the parental peptide).
chain 1 EEDDYTQYAPLTCYFT [chain 1 A7Q] was tested, and the enrichment was 1.91 log2 (difference from the parental peptide).
chain 1 EEDDYTIYAPLTCYFT [chain 1 A7I] was tested, and the enrichment was -4.17 log2 (difference from the parental peptide).
With chain 1 EEDDYTPYAPLTCYFT [chain 1 A7P] the enrichment was 1.3 log2 (difference from the parental peptide).
With chain 1 EEDDYTRYAPLTCYFT [chain 1 A7R] the enrichment was 3.96 log2 (difference from the parental peptide).
With chain 1 EEDDYTKYAPLTCYFT [chain 1 A7K] the enrichment was 3.56 log2 (difference from the parental peptide).
With chain 1 EEDDYTAYAPLECYFT [chain 1 T12E] the enrichment was -5.73 log2 (difference from the parental peptide).
With chain 1 EEDDYTAYAPLACYFT [chain 1 T12A] the enrichment was -4.61 log2 (difference from the parental peptide).
In the case of chain 1 EEDDYTAYAPLLCYFT [chain 1 T12L], the enrichment is reported as 0.297 log2 (difference from the parental peptide).
With chain 1 EEDDYTAYAPLFCYFT [chain 1 T12F] the enrichment was 0.112 log2 (difference from the parental peptide).
chain 1 EEDDYTAYAPLRCYFT [chain 1 T12R] was tested, and the enrichment was -1.85 log2 (difference from the parental peptide).
For chain 1 EEDDYTAYAYLTCYFT [chain 1 P10Y], the enrichment was -6.08 log2 (difference from the parental peptide).
With chain 1 EEDDYTAYAFLTCYFT [chain 1 P10F] the enrichment was -7.51 log2 (difference from the parental peptide).
With chain 1 EEDAYTAYAPLTCYFT [chain 1 D4A] the enrichment was -3.66 log2 (difference from the parental peptide).
For chain 1 EEDGYTAYAPLTCYFT [chain 1 D4G], the enrichment was -4.74 log2 (difference from the parental peptide).
For chain 1 EEDLYTAYAPLTCYFT [chain 1 D4L], the enrichment was -4.56 log2 (difference from the parental peptide).
With chain 1 EEDHYTAYAPLTCYFT [chain 1 D4H] the enrichment was -6.29 log2 (difference from the parental peptide).
With chain 1 EEDTYTAYAPLTCYFT [chain 1 D4T] the enrichment was -5.39 log2 (difference from the parental peptide).
In the case of chain 1 EEDDYDAYAPLTCYFT [chain 1 T6D], the enrichment is reported as 1.63 log2 (difference from the parental peptide).
chain 1 EEDDYGAYAPLTCYFT [chain 1 T6G] was tested, and the enrichment was 2.24 log2 (difference from the parental peptide).
In the case of chain 1 EEDDYEAYAPLTCYFT [chain 1 T6E], the enrichment is reported as 1.53 log2 (difference from the parental peptide).
With chain 1 EEDDYNAYAPLTCYFT [chain 1 T6N] the enrichment was 0.737 log2 (difference from the parental peptide).
chain 1 EEDDYQAYAPLTCYFT [chain 1 T6Q] was tested, and the enrichment was 0.398 log2 (difference from the parental peptide).
With chain 1 EEDDYSAYAPLTCYFT [chain 1 T6S] the enrichment was 2.6 log2 (difference from the parental peptide).
For chain 1 EEDDYFAYAPLTCYFT [chain 1 T6F], the enrichment was -2.91 log2 (difference from the parental peptide).
chain 1 EEDDYWAYAPLTCYFT [chain 1 T6W] was tested, and the enrichment was 0.392 log2 (difference from the parental peptide).
For chain 1 EEDDYIAYAPLTCYFT [chain 1 T6I], the enrichment was -6.22 log2 (difference from the parental peptide).
With chain 1 EEDDDTAYAPLTCYFT [chain 1 Y5D] the enrichment was -5.57 log2 (difference from the parental peptide).
For chain 1 EEDDCTAYAPLTCYFT [chain 1 Y5C], the enrichment was -5.02 log2 (difference from the parental peptide).
chain 1 EEDDVTAYAPLTCYFT [chain 1 Y5V] was tested, and the enrichment was -6.56 log2 (difference from the parental peptide).
In the case of chain 1 EEDDLTAYAPLTCYFT [chain 1 Y5L], the enrichment is reported as -3.76 log2 (difference from the parental peptide).
For chain 1 EEDDYTAYAPLTCGFT [chain 1 Y14G], the enrichment was -6.43 log2 (difference from the parental peptide).
For chain 1 EEDDYTAYAPLTCWFT [chain 1 Y14W], the enrichment was -0.976 log2 (difference from the parental peptide).
chain 1 EEDDYTAYAPLTCQFT [chain 1 Y14Q] was tested, and the enrichment was -4.69 log2 (difference from the parental peptide).
In the case of chain 1 EEDDYTAYAPLTCPFT [chain 1 Y14P], the enrichment is reported as -7.37 log2 (difference from the parental peptide).
chain 1 EEDDYTAYAPLTCSFT [chain 1 Y14S] was tested, and the enrichment was -5.6 log2 (difference from the parental peptide).
chain 1 EEDDYTAYAPLTCMFT [chain 1 Y14M] was tested, and the enrichment was -4.32 log2 (difference from the parental peptide).
For chain 1 EEDDYTAYAPLTCAFT [chain 1 Y14A], the enrichment was -6.44 log2 (difference from the parental peptide).
With chain 1 EEDDYTAYAPLTCVFT [chain 1 Y14V] the enrichment was -3.57 log2 (difference from the parental peptide).
chain 1 EEDDYTAYAPLTCHFT [chain 1 Y14H] was tested, and the enrichment was -3.18 log2 (difference from the parental peptide).
With chain 1 EEDDYTAYAPLTCIFT [chain 1 Y14I] the enrichment was -2.85 log2 (difference from the parental peptide).
chain 1 EEDDYTAYAPLTCFFT [chain 1 Y14F] was tested, and the enrichment was -0.272 log2 (difference from the parental peptide).
For chain 1 EEDDYTAYAPLTCKFT [chain 1 Y14K], the enrichment was -7.27 log2 (difference from the parental peptide).
With chain 1 EEDDYTAYAPLTIYFT [chain 1 C13I] the enrichment was -2.82 log2 (difference from the parental peptide).
For chain 1 EEDDYTAYAPLTLYFT [chain 1 C13L], the enrichment was -6.33 log2 (difference from the parental peptide).
In the case of chain 1 EEDDYTAYAPLTEYFT [chain 1 C13E], the enrichment is reported as -7.45 log2 (difference from the parental peptide).
In the case of chain 1 EEDDYTAYAPLTPYFT [chain 1 C13P], the enrichment is reported as -6.7 log2 (difference from the parental peptide).
With chain 1 EEDDYTAYAPLTYYFT [chain 1 C13Y] the enrichment was -5.68 log2 (difference from the parental peptide).
In the case of chain 1 EEDDYTAYAPLTRYFT [chain 1 C13R], the enrichment is reported as -10.7 log2 (difference from the parental peptide).
In the case of chain 1 EQDDYTAYAPLTCYFT [chain 1 E2Q], the enrichment is reported as -0.416 log2 (difference from the parental peptide).
For chain 1 ELDDYTAYAPLTCYFT [chain 1 E2L], the enrichment was -1.6 log2 (difference from the parental peptide).
For chain 1 ERDDYTAYAPLTCYFT [chain 1 E2R], the enrichment was -1.35 log2 (difference from the parental peptide).
In the case of chain 1 EADDYTAYAPLTCYFT [chain 1 E2A], the enrichment is reported as -0.532 log2 (difference from the parental peptide).
For chain 1 EPDDYTAYAPLTCYFT [chain 1 E2P], the enrichment was -2.4 log2 (difference from the parental peptide).
For chain 1 EVDDYTAYAPLTCYFT [chain 1 E2V], the enrichment was -1.03 log2 (difference from the parental peptide).
With chain 1 KEDDYTAYAPLTCYFT [chain 1 E1K] the enrichment was -0.679 log2 (difference from the parental peptide).
With chain 1 HEDDYTAYAPLTCYFT [chain 1 E1H] the enrichment was -0.323 log2 (difference from the parental peptide).
For chain 1 FEDDYTAYAPLTCYFT [chain 1 E1F], the enrichment was -1.75 log2 (difference from the parental peptide).
In the case of chain 1 SEDDYTAYAPLTCYFT [chain 1 E1S], the enrichment is reported as 0.17 log2 (difference from the parental peptide).
chain 1 PEDDYTAYAPLTCYFT [chain 1 E1P] was tested, and the enrichment was -1.24 log2 (difference from the parental peptide).
With chain 1 REDDYTAYAPLTCYFT [chain 1 E1R] the enrichment was -1.72 log2 (difference from the parental peptide).
With chain 1 TEDDYTAYAPLTCYFT [chain 1 E1T] the enrichment was -0.325 log2 (difference from the parental peptide).
With chain 1 EEDDYTAYAPLTCYFH [chain 1 T16H] the enrichment was 0.123 log2 (difference from the parental peptide).
With chain 1 EEDDYTAYAPLTCYFK [chain 1 T16K] the enrichment was 0.193 log2 (difference from the parental peptide).
For chain 1 EEDDYTAYAPLTCYFF [chain 1 T16F], the enrichment was -0.625 log2 (difference from the parental peptide).
For chain 1 EEDDYTAYAPLTCYFL [chain 1 T16L], the enrichment was 0.451 log2 (difference from the parental peptide).
In the case of chain 1 EEDDYTAYAPCTCYFT [chain 1 L11C], the enrichment is reported as 0.521 log2 (difference from the parental peptide).
chain 1 EEDDYTAYAPFTCYFT [chain 1 L11F] was tested, and the enrichment was -0.993 log2 (difference from the parental peptide).
In the case of chain 1 EEDDYTAYAPMTCYFT [chain 1 L11M], the enrichment is reported as 3.11 log2 (difference from the parental peptide).
In the case of chain 1 EEDDYTAYAPPTCYFT [chain 1 L11P], the enrichment is reported as -5.62 log2 (difference from the parental peptide).
In the case of chain 1 EEDDYTAYAPGTCYFT [chain 1 L11G], the enrichment is reported as -8.35 log2 (difference from the parental peptide).
